Test results from the supplement of paper PMC10567573.

B1: ADAMTSL2 (parent)
chain: KKPPEESTCFERPCFKWYTSPWSE

Variants of: B1
Assay: protein stability index of a GFP-peptide fusion (GPS, HEK-293T) (PSI 1-6); higher = more stable
Settings: c terminus: a fixed tail appended
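Also: lentivirally expressed fusions sorted by FACS into six bins by GFP to DsRed ratio, PSI derived from sequencing read proportions per bin multiplied by bin number.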

Protein stability index: each site, then its substitutions
P3: V 2.16, T 2.21, C 2.08, D 2.77
T8: R 2.14, G 2.37, N 2.56, L 3.01, A 2.75, K 2.89, V 2.28, Y 1.68, C 2.17, S 2.77, F 1.74, W 1.7, D 2.61, H 2.29, M 2.45, I 2.32, Q 2.79, E 2.69, P 2.59
C9: G 2.63, I 2.25, H 2.36, P 2.7, R 2.52, F 2.3, Q 3.34, V 2.82, M 2.8, S 2.35, N 2.18, L 2.05, T 2.84, W 2.04, Y 2.54, A 2.43, D 2.97, K 2.69, E 3.33
R12: D 3, K 2.5, I 2.03, A 2.65, F 1.71, H 2.63, N 2.55, L 2.04, G 2.42, E 2.95, M 2.16, C 1.69
K1: E 3.08, G 2.34, L 2.35, V 2.29, P 2.24, I 1.71, W 1.75, C 1.89, A 2.38, R 2.88, M 2.48, T 2.52, Q 2.58, D 2.67, Y 1.83, H 2.33, N 3.12, S 2.37, F 2.59
E6: P 2.05, I 1.87, D 2.8, K 2.55, N 2.08, F 1.9, C 2.44, W 1.87, T 1.84, S 1.82, L 2.07, H 2.06, Y 1.97, V 2.65, M 1.9, A 1.91, R 2.05, G 2.57, Q 2.06
E5: I 2.16, A 1.92, H 2.09, F 1.88, G 2.2, W 2.27, C 2.32, L 2.33, Y 2.01, V 2.48, P 1.82, S 2.3, R 2.02, Q 2, M 1.47, D 2.08, T 1.67, K 1.45, N 2.29
K2: C 2.75, F 2.13, N 2.94, M 2.72, R 2.61, A 3.16, H 1.96, W 2.39, G 2.73, V 2.04, E 2.79, Y 2.36, S 2.15, L 2.73, I 1.78, P 2.27, Q 2.29, T 2.66, D 3.01
F10: P 3.19, C 2.14, Q 2.54, V 2.86, D 2.89, Y 2.06, G 2.71, E 2.9, W 2.09, M 2.83, T 3.19, S 3.46, K 3.55, A 2.51, I 2.81, L 2.81, N 2.45, H 2.99
S7: T 2.39, F 2.11, C 2.66, M 2.08, V 2.42, Q 2.58, W 1.66, I 2.28, R 2.19, P 2.21, E 2.47, D 2.4, H 2.51, N 2.24, A 2.31, G 2.8, K 2.21, Y 2.64, L 1.39
